According to publication PMC6004577 (Molecular Biology of the Cell, 2018):

Tests used:
[1] = biological target: the molecule itself; test: SEC
[2] = biological target: the molecule itself; test: AUC

B1: α-mDelNT, N-terminal half of mouse α-Delphilin (aa 1-558) (domain or fragment, UniProt Q0QWG9-2 1-558, looked up)
chain: MSCLGIFIPKKHRARFDEVVSQGLLGKLCRARRAQGAQRLRRSRSEERPERLLVSTRASAAPRRPDEPPPRKATSLLGGRTGPGGPRRTVRVYKGNKSFGFTLRGHGPVWIESVLPGSPAENASLKSGDRILFLNGLDMRNCSHDKVVSMLQGSGAMPTLVVEEGPVPFASDSDSLDSPTRASALTSLQWVADILPSSIRVQGRTFSQQLDHLLTPPERYGVCRALERFFQHRNIDTLIVDVYPVLDTPAKQVLWQFLYQLLTYEEQELCQEKIACFLGYTAMTEPESSLDLEPESTPEPTPEPQPRSSLRASSMCRRSLRSQGLETSLSCGPGDCPEMPLPLIPGERQAGDGTSLPETPNPKMMSAVYAELESRLNSSFKGKIGTMSKSRASPPVPSLVGTSGPRTLSGVSWPSDRLLPSPCYDPLCSGGLASPSSSESHPYASLDSSRAPSPQPGLGSIHADSPPSPDPIRPPSRRKLFAFSRPVRSRDTDRFLDALSEQLGPRLSIVDDFLTPENDYEEMSFHDDQGSFVTNERSSASECVSSSEEGSSLTYSSI
[1]
  stoichiometry N: 7 ± 1 subunits
[2]
  stoichiometry N: 6
